Reference: patent US20050095604A1 (published 2005)

Molecular target: T1, endogenous beta-catenin of human HEK293 cells (human, UniProt P35222 2-781)
T1 construct: also called β-catenin
T1 sequence (looked up): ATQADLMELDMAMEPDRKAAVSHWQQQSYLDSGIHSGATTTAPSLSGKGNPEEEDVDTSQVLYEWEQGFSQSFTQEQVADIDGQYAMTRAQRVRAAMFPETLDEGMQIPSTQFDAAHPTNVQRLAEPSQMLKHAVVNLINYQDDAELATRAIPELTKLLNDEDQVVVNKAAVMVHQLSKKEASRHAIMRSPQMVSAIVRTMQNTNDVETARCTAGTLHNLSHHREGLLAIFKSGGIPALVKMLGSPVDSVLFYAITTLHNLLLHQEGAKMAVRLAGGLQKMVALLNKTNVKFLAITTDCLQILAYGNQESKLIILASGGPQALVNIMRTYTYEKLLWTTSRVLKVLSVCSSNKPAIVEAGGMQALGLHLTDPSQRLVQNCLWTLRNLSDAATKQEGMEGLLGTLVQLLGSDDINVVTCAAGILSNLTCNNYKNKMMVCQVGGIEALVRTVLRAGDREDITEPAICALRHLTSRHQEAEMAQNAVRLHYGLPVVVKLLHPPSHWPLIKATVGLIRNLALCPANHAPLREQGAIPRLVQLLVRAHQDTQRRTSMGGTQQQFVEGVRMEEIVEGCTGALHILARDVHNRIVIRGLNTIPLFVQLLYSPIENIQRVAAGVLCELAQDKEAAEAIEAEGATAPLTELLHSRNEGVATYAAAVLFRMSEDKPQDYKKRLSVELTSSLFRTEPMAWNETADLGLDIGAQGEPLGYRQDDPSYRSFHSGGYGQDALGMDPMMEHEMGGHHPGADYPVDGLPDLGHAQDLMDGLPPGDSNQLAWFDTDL
Assay: Talon cobalt-affinity isolation of His-tagged hPSF from 1% CHAPSO lysates of stable HEK293 cells, Western blot

binding result: no binding
B1: human presenilin stabilization factor (PSF) with C-terminal V5 and poly-histidine (6xHis) tags (other, not shown: small tags and cut ends)
chain: MGAAVFFGCTFVAFGPAFALFLITVAGDPLRVIILVAGAFFWLVSLLLASVVWFILVHVTDRSDARLQYGLLIFGAAVSVLLQEVFRFAYYKLLKKADEGLASLSEDGRSPISIRQMAYVSGLSFGIISGVFSVINILADALGPGVVGIHGDSPYYFLTSAFLTAAIILLHTFWGVVFFDACERRRYWALGLVVGSHLLTSGLTFLNPWYEASLLPIYAVTVSMGLWAFITAGGSLRSIQRSSCVRTDYLD
notes: Stably expressed in HEK293 (APP-695) cells (clonal line 2-7), solubilised in 1% CHAPSO and captured on Talon cobalt resin; Both the full-length (~25 kDa) and the processed (~15 kDa) forms were isolated; also called hPSF; PSF-V5
